Laboratory results: publication PMC9605988, “Juxtaposition of Bub1 and Cdc20 on phosphorylated Mad1 during catalytic mitotic checkpoint complex assembly” (Nature Communications, 2022)
Like-named read-outs stand apart in the source and are kept apart here. Square brackets hold non-standard residues; d marks the D form. Peptide text beside a SMILES is read from it. * marks the point of attachment. X1 = N=c1ccc2c(-c3ccc(C(=O)NCCCCCN4C(=O)CC(*)C4=O)cc3C(=O)O)c3ccc(N)c(S(=O)(=O)O)c3oc-2c1S(=O)(=O)O; pT = C[C@@H](OP(=O)(O)O)[C@H](N)C(=O)O; pS = N[C@@H](COP(=O)(O)O)C(=O)O

Key:
Mad1 CTD (Homo sapiens) = Mad1 CTD (Homo sapiens) (UniProt Q9Y6D9); conditions: cited from earlier work
pMad1CTD:Cdc20N complex = molecular target: T1, pMad1CTD:Cdc20N complex (Homo sapiens, UniProt Q12834+Q9Y6D9); experiment: Fluorescence anisotropy: AF488-Bub1CD1 binding to preformed pMad1CTD:Cdc20N complex; conditions: KD 1.7 vs 0.9 µM for pMad1CTD alone
T1 construct: the C-terminal domain of Mad1 (residue 597–718); made in house; host or cells: Cdc20N: E. coli Rosetta 2 (DE3)
Experimental: (§1) All reactions were completed in a buffer of 25 mM HEPES pH 7.75, 1 mM TCEP, 100 mM NaCl, 0.05% (v/v) Tween-20. […] Measurements were performed with a PheraStar plate reader FSX plate reader (BMG Labtech) using an optic module for λex = 485 nm, λem = 520 nm. Reactions were carried out in a total volume of 40 μl at 25 °C in a black, flat-bottom, non-binding surface 384-well plate (Corning). All experiments were performed as technical triplicates and data were analysed in PRISM 9.3.1 (GraphPad Software).

[1] = molecular target: T2, Mad2 R133A prepared in the open state for NMR (O-Mad2) (UniProt Q13257 1-205, R133A); experiment: NMR time course (1H,15N HSQC); 100 μM 15N O-Mad2 R133A with 200 μM Cdc20^MIM peptide; 25 °C; Trp75 and Trp167 indole resonances as reporters; conditions: both partners purified
T2 construct: Mad2; also called O-Mad2 with an R133A mutation; source: 15N-labelled in M9 minimal media
T2 sequence (Q13257 whole entry R133A): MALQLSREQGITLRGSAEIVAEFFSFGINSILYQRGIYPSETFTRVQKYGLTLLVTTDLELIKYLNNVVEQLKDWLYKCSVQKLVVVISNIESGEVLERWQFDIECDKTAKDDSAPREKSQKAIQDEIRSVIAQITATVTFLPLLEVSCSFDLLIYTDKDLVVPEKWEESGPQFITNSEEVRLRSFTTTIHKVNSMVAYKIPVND

[2] = molecular target: Mad1^CTD phosphorylated at Thr716 (pMad1^CTD) (UniProt Q9Y6D9); experiment: AUC; sedimentation equilibrium; 20 mM HEPES pH 7.5, 100 mM NaCl, 1 mM TCEP; 20 °C; 10,200, 12,200 and 21,000 rpm; up to four-fold molar excess of Cdc20^N
[3] = molecular target: Mad1^CTD phosphorylated at Thr716 (pMad1^CTD) (UniProt Q9Y6D9); experiment: SEC-MALS; Superdex 75 or Superdex 200 Increase 10/300 GL, 0.5 ml/min; about 100 μl at ~3.0 mg/ml; Mad1^CTD dimer to Cdc20^N 1:1.2; proteins also run alone
[4] = molecular target: T3, preformed AF488-Bub1^CD1:Mad1^CTD complex (Mad1^CTD unphosphorylated) (UniProt Q9Y6D9 597-718, Aurora Fluor 488 (AF488) on the N-terminal Cys; phosphoserine (pSer459); phosphothreonine (pThr461)); experiment: fluorescence polarisation; fluorescence anisotropy; Cdc20^N twofold series (100 μM to 6 nM, mixed 1:1) titrated into preformed AF488-Bub1^CD1:Mad1^CTD (20 nM: 2.1 µM); 25 mM HEPES pH 7.75, 1 mM TCEP, 100 mM NaCl, 0.05% Tween-20; 25 °C; conditions: both partners purified
T3 construct: Mad1 C-terminal domain (Mad1^CTD), residues 597-718; as m1; added N-terminal Cys (carries AF488) and Trp; as m7; Bub1 conserved domain 1 (CD1) peptide; also called Mad1^CTD:AF488-Bub1^CD1 complex; source: mixed from purified Mad1^CTD and synthetic peptide (20 nM: 2.1 µM); copies: 2 + 1
T3 sequence 1: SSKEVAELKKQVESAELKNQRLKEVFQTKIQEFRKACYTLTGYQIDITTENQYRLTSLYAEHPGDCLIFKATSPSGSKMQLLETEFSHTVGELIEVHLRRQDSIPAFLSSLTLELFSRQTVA
T3 sequence 2: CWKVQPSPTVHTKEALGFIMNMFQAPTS

[5] = molecular target: T4, preformed AF488-Bub1^CD1:pMad1^CTD complex (Mad1^CTD phosphorylated at Thr716) (UniProt Q9Y6D9 597-718, phosphothreonine at 716 (pThr716) | Aurora Fluor 488 (AF488) on the N-terminal Cys; phosphoserine (pSer459); phosphothreonine (pThr461)); experiment: as above; conditions: both partners purified
T4 construct: Mad1 C-terminal domain (Mad1^CTD), residues 597-718; as m2; added N-terminal Cys (carries AF488) and Trp; as m7; Bub1 conserved domain 1 (CD1) peptide; source: mixed from purified pMad1^CTD and synthetic peptide (20 nM: 2.1 µM); copies: 2 + 1
T4 sequence 1: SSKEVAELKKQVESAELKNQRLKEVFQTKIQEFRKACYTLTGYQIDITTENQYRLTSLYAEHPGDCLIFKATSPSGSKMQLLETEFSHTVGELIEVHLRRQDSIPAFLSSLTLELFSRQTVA
T4 sequence 2: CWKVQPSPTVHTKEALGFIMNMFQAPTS

[6] = system: AF488-Bub1CD1:pMad1CTD complex; experiment: Fluorescence anisotropy: Cdc20N titrated into preformed AF488-Bub1CD1:pMad1CTD complex; format: binding, human; conditions: at the concentrations used in the assay
pMad1CTD (Mad1CTD pT716) = experiment: SEC-MALS, Cdc20N with pMad1CTD; format: binding, human; conditions: 1:1.2 ratio Mad1CTD dimer to Cdc20N
Experimental: (§2) Size-exclusion chromatography coupled with multi-angle static light scattering (SEC-MALS), was performed using an Agilent 1200 series LC system with an online Dawn Helios ii system (Wyatt) equipped with a QELS + module (Wyatt) and an Optilab rEX differential refractive index detector (Wyatt). About 100 μl purified protein at ~3.0 mg/ml was auto-injected onto Superdex 75 or a Superdex 200 Increase 10/300 GL column (GE Healthcare) and run at 0.5 ml/min. The molecular masses were analysed with ASTRA 7.3.0.11 (Wyatt). Data were plotted using Prism 8.4.3 (GraphPad Software, Inc). Purified Cdc20^N and Cdc20^N mutants were incubated with Mad1^CTD wild-type or mutants at a 1:1.2 ratio of Mad1^CTD dimer to Cdc20^N.

[7] = system: Mad1CTD R617E/K619D mutant; experiment: SEC-MALS, Cdc20N with Mad1CTD R617E/K619D; format: binding, human; conditions: 1:1.2 ratio Mad1CTD dimer to Cdc20N
Experimental: as §2

[8] = molecular target: the molecule itself; experiment: SEC-MALS; Superdex 75 or Superdex 200 Increase 10/300 GL, 0.5 ml/min; about 100 μl at ~3.0 mg/ml; Mad1^CTD dimer to Cdc20^N 1:1.2; proteins also run alone
Bub1CD1 [9] = experiment: Binding of Mad1CTD mutants to Bub1CD1; conditions: fluorescence anisotropy therefore not usable for this mutant
Experimental: as §1

Bub1CD1 [10] = conditions: cited from earlier work
From the text: (§3) In this predicted model, the Cdc20^N α1 helix lies diagonally across the Mad1^CTD coiled-coil with its N-terminus close to the Mad1 RLK motif of one monomer, and the C-terminus contacting the head domain β-sheet of the adjacent monomer, in a manner that strikingly mimics the Bub1^CD1:Mad1^CTD interaction (Fig. 4d). Similar to Bub1^CD1, the interaction of Cdc20 α1 with Mad1^CTD would largely be driven by hydrophobic interactions (Fig. 4e). This model predicts that Gln3 and Glu7, and Asp9 of Cdc20 α1 interact with Arg617 and Lys619, respectively of the Mad1^CTD RLK motif (Fig. 4d). This is consi ...

[11] = system: spindle assembly checkpoint; conditions: cited from earlier work
From the text: as §3

Bub1 CD1 (from UniProt O43683)
Kd (Mad1 CTD (Homo sapiens)): 2.7 µM

CC[C@H](C)[C@H](NC(=O)[C@H](Cc1ccccc1)NC(=O)CNC(=O)[C@H](CC(C)C)NC(=O)[C@H](C)NC(=O)[C@H](CCC(=O)O)NC(=O)[C@H](CCCCN)NC(=O)[C@@H](NC(=O)[C@H](Cc1c[nH]cn1)NC(=O)[C@@H](NC(=O)[C@@H](NC(=O)[C@@H]1CCCN1C(=O)[C@H](COP(=O)(O)O)NC(=O)[C@@H]1CCCN1C(=O)[C@H](CCC(N)=O)NC(=O)[C@@H](NC(=O)[C@H](CCCCN)NC(=O)[C@H](Cc1c[nH]c2ccccc12)NC(=O)[C@@H](N)CSC1CC(=O)N(CCCCCNC(=O)c2ccc(-c3c4ccc(=N)c(S(=O)(=O)O)c-4oc4c(S(=O)(=O)O)c(N)ccc34)c(C(=O)O)c2)C1=O)C(C)C)[C@@H](C)OP(=O)(O)O)C(C)C)[C@@H](C)O)C(=O)N[C@@H](CCSC)C(=O)N[C@@H](CC(N)=O)C(=O)N[C@@H](CCSC)C(=O)N[C@@H](Cc1ccccc1)C(=O)N[C@@H](CCC(N)=O)C(=O)N[C@@H](C)C(=O)N1CCC[C@H]1C(=O)N[C@H](C(=O)N[C@@H](CO)C(=O)O)[C@@H](C)O (stereo partly drawn) [AF488-Bub1^CD1] (H-C(X1)WKVQP[pS]P[pT]VHTKEALGFIMNMFQAPTS-OH; N-terminus and C-terminus assumed)
cooperativity of Bub1CD1 and Cdc20N binding to pMad1CTD (pMad1CTD:Cdc20N complex): unlikely to be cooperative
cooperativity of Bub1CD1 and Cdc20N binding to pMad1CTD (pMad1CTD:Cdc20N complex; listed as AF488-Bub1CD1): no cooperativity

B1: Cdc20^MIM peptide (peptide)
peptide: NLNGFDVEEAKILRLSGKPQNAPEGYQNRLKVLY
notes: source: synthetic peptide (Designer Bioscience, UK)
binding result [1]: binds

B2: Cdc20^N (N-terminal truncation of Cdc20, residues 1-73) (domain or fragment, human, UniProt Q12834 1-73, looked up)
chain: MAQFAFESDLHSLLQLDAPIPNAPPARWQRKAKEAAGPAPSPMRAANRSHSAGRTPGRTPGKSSSKVQTTPSK
notes: human Cdc20, residues 1-73; also called Cdc20^1–73; wild-type Cdc20^N; source: E. coli Rosetta 2 (DE3), purified (TALON, TEV cleavage, HisTrap, Resource S, Superdex 75); not shown: His6, N-terminal, cleaved; MBP, N-terminal, cleaved
stoichiometry N (Cdc20^N per pMad1^CTD homodimer) [2]: 1
stoichiometry N (Cdc20^N per pMad1^CTD dimer) [3]: 1
Kd [4]: 28.1 µM
Kd [5]: 4.8 µM

B3: Cdc20^N E7R/D9K: Cdc20N E7R/D9K mutant (protein)
chain: MAQFAFRSKLHSLLQLDAPIPNAPPARWQRKAKEAAGPAPSPMRAANRSHSAGRTPGRTPGKSSSKVQTTPSK
modifications: left off: His6, N-terminal, state not stated | MBP, N-terminal, state not stated
notes: Cdc20N E7R/D9K mutant
interaction with pMad1CTD by fluorescence anisotropy [6]: could no longer be observed
binding by SEC-MALS (pMad1CTD (Mad1CTD pT716)): could no longer be observed
binding by SEC-MALS [7]: did not show an interaction

B4: Mad1^CTD phosphorylated at Thr716 (pMad1^CTD) (domain or fragment, UniProt Q9Y6D9 597-718, looked up)
chain: SSKEVAELKKQVESAELKNQRLKEVFQTKIQEFRKACYTLTGYQIDITTENQYRLTSLYAEHPGDCLIFKATSPSGSKMQLLETEFSHTVGELIEVHLRRQDSIPAFLSSLTLELFSRQTVA
modifications: phosphothreonine at 716 (pThr716)
notes: Mad1 C-terminal domain (Mad1^CTD), residues 597-718; Homodimer; A few peptides phosphorylated at Thr644 were also found; one phosphate per monomer by intact mass; also called Mad1^CTD pT716; Mad1^CTD pThr716
stoichiometry N [8]: 2

B5: Mad1^CTD R617E/K619D: Mad1CTD double mutant of the RLK motif (protein)
chain: SSKEVAELKKQVESAELKNQELDEVFQTKIQEFRKACYTLTGYQIDITTENQYRLTSLYAEHPGDCLIFKATSPSGSKMQLLETEFSHTVGELIEVHLRRQDSIPAFLSSLTLELFSRQTVA
Bub1CD1 binding of Mad1CTD mutant (Bub1CD1 [9]): disrupted the binding of Bub1^CD1

B6: Mad1^CTD K619A: Mad1CTD K619A mutant, refs 21, 24 (protein, UniProt Q9Y6D9 597-718, looked up, variant K619A)
chain: SSKEVAELKKQVESAELKNQRLAEVFQTKIQEFRKACYTLTGYQIDITTENQYRLTSLYAEHPGDCLIFKATSPSGSKMQLLETEFSHTVGELIEVHLRRQDSIPAFLSSLTLELFSRQTVA
Bub1CD1 binding of Mad1CTD mutant (Bub1CD1 [10]): did not disrupt Bub1^CD1 binding significantly
checkpoint function [11]: disrupted the checkpoint
